According to patent US20190302117:

Key:
[1] = test system: Peptide 10: EDPIYVTLEGGKKK (version of peptide 2 used for the kinetic experiments)
[2] = test system: Peptide 11: DEAIYATVAGGKKK (version of peptide 5 used for the kinetic experiments)

Substance	kcat [1] [s⁻¹]	kcat/Km [1] [s⁻¹ M⁻¹]	kcat [2] [s⁻¹]	kcat/Km [2] [s⁻¹ M⁻¹]	2/5 kcat/Km ratio (peptide 2 against peptide 5) [1]	Km [1] [µM]	Km [2] [µM]
SRC as GST fusion protein	> 40	17500	> 2	9500	–	–	–
SYK as GST fusion protein	> 2e-07	1080	> 0.1	560	1.8	> 200	> 200
